Biological target: the molecule itself
Assay: cryo-EM structure; single-particle analysis of purified truncated E2 (4 uL of 100 nM) on a holey carbon grid, vitrified at 4 °C and 100% humidity; 69,946 particles; reconstructed with C1, C5, D2, T and I symmetry (4.93 to 4.20 Å)

B1: truncated dihydrolipoyl acetyltransferase (E2) of the pyruvate dehydrogenase complex of B. stearothermophilus, amino acids 185 to 425 (catalytic core domain … (domain or fragment, Bacillus stearothermophilus, UniProt P11961 185-425, looked up)
chain: AAAKPATTEGEFPETREKMSGIRRAIAKAMVHSKHTAPHVTLMDEADVTKLVAHRKKFKAIAAEKGIKLTFLPYVVKALVSALREYPVLNTSIDDETEEIIQKHYYNIGIAADTDRGLLVPVIKHADRKPIFALAQEINELAEKARDGKLTPGEMKGASCTITNIGSAGGQWFTPVINHPEVAILGIGRIAEKPIVRDGEIVAAPMLALSLSFDHRMIDGATAQKALNHIKRLLSDPELLL
notes: dihydrolipoyl acetyltransferase (E2) of the pyruvate dehydrogenase complex, Bacillus stearothermophilus, UniProt P11961; Forms an icosahedral inner core built of trimeric units; It says only that I symmetry has 60 elements; The monomer runs at about 32 kDa on SDS-PAGE, more than residues 185-425 alone, so tags are probably present; also called truncated E2; E2 inner core complex; source: E. coli …
stoichiometry N: 3
